Data: patent publication US20200347101A1 (PAI LIFE SCIENCES, published 2020)
Where “and” joins values, the source holds several entries; their conditions need not be identical. Identical values can stand only once. Like-named read-outs stand apart in the source and are kept apart here.

Columns and labels:
[1] = target: recombinant human DSG2 (human) (UniProt Q14126); experiment: SPR (Biacore 3000), JO protein immobilized, rhDSG2 flowed
[2] = target: recombinant human DSG2 (human) (UniProt Q14126); experiment: SPR, comparison of the two formats
[3] = target: recombinant human DSG2 (human) (UniProt Q14126); experiment: SPR; summary table, Affinity to DSG2 (nM)
[4] = target: recombinant human DSG2 (human) (UniProt Q14126); experiment: SPR (Biacore 3000), hDSG2 immobilized, JO protein flowed
[5] = target: DSG2 on cells (HeLa cells in the viral inhibition assay; HT29 cells in the shedding assay) (UniProt Q14126)
[6] = target: DSG2 on cells (HeLa cells in the viral inhibition assay; HT29 cells in the shedding assay) (UniProt Q14126); experiment: cell-based or functional assay
[7] = target: DSG2 on cells (HeLa cells in the viral inhibition assay; HT29 cells in the shedding assay) (UniProt Q14126); experiment: cell-based or functional assay; remark: listed apart in the source
[8] = target: T1, DSG2 on cells (HeLa cells in the viral inhibition assay; HT29 cells in the shedding assay) (UniProt Q14126 50-1118); experiment: cell-based or functional assay
T1 sequence: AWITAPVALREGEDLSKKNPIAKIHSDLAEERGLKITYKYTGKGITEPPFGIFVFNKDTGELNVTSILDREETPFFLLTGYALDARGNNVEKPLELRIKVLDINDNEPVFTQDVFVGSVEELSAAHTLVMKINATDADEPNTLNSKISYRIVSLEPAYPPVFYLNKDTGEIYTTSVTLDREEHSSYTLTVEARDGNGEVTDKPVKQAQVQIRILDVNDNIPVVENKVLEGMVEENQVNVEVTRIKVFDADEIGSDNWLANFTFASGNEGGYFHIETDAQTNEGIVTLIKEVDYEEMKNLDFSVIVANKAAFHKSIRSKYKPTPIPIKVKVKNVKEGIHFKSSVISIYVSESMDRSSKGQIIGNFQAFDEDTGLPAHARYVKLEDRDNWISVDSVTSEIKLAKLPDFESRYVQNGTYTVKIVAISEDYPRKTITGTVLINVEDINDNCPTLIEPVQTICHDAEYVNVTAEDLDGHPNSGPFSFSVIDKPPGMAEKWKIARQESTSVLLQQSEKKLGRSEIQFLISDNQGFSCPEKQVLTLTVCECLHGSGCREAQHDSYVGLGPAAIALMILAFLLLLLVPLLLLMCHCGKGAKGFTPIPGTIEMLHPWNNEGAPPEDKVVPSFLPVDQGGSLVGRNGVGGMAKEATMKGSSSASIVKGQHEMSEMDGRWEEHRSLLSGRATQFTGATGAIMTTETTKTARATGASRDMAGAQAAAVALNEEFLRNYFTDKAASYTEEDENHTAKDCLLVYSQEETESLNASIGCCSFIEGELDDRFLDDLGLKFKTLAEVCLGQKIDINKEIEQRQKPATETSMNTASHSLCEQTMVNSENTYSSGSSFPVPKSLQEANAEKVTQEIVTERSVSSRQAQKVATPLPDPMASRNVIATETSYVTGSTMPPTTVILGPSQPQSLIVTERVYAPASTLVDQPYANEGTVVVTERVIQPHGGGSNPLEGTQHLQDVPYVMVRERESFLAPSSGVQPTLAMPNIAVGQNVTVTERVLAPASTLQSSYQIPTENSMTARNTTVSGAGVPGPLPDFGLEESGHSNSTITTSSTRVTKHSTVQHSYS

recombinant human DSG2 [9] = target: T2, recombinant human DSG2 (human, UniProt Q14126 50-609); experiment: SPR (Biacore 3000), hDSG2 immobilized, JO protein flowed
T2 construct: also called hDSG2; rhDSG2
T2 sequence: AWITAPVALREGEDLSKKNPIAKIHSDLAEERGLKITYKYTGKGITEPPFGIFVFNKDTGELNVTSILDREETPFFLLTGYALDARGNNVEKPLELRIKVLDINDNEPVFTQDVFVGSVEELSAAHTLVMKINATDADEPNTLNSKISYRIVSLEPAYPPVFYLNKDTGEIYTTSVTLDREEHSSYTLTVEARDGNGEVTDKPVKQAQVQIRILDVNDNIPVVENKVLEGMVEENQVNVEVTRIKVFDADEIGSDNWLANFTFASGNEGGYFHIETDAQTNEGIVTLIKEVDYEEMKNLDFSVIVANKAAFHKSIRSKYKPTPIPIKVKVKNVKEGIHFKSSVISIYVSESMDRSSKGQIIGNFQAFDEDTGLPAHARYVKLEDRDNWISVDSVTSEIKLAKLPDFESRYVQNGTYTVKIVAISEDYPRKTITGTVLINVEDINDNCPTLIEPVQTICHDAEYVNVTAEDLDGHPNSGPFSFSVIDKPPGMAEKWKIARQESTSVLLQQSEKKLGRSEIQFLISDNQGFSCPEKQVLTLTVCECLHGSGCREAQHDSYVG

[10] = target: T1, DSG2 on cells (HeLa cells in the viral …); experiment: cell-based or functional assay; remark: listed apart in the source
[11] = target: T1, DSG2 on cells (HeLa cells in the viral …); experiment: cell-based or functional assay; remark: listed apart in the source
[12] = target: T1, DSG2 on cells (HeLa cells in the viral …); experiment: cell-based or functional assay; remark: listed apart in the source
recombinant human DSG2 [13] = target: T2, recombinant human DSG2; experiment: SPR; summary table, Affinity to DSG2 (nM)
[14] = target: T1, DSG2 on cells (HeLa cells in the viral …); experiment: cell-based or functional assay; remark: listed apart in the source
[15] = target: T1, DSG2 on cells (HeLa cells in the viral …); experiment: cell-based or functional assay; remark: listed apart in the source
recombinant human DSG2 [16] = target: T2, recombinant human DSG2; experiment: SPR, comparison of the two formats
recombinant human DSG2 [17] = target: T2, recombinant human DSG2; experiment: SPR (Biacore 3000), JO protein immobilized, rhDSG2 flowed

What does the source list for “JO-4 (designed binder; other documents disagree on this pair)”?
Kd [1]: 0.58 nM; koff [1]: 0.00046 s⁻¹; kon [1]: 790000 M⁻¹ s⁻¹; fold faster on-rate, JO-4 immobilized against DSG2 immobilized [2]: 3.4 fold; fold improvement in affinity, JO-4 immobilized against DSG2 immobilized [2]: 20 fold; fold more stable dissociation rate, JO-4 immobilized against DSG2 immobilized [2]: 5.7 fold; Kd [3]: 0.58 nM; Kd [4]: 11.4 nM; koff [4]: 0.00264 s⁻¹

How did the IC50 (read off the curve); VIA, oxidized (non-reduced) JO4 [5] turn out when JO-4 (designed binder) was run?
Its IC50 (read off the curve); VIA, oxidized (non-reduced) JO4 is 0.05 µg/mL.

And the IC50 (read off the curve); VIA, reduced (DTT) JO4 [5]?
The IC50 (read off the curve); VIA, reduced (DTT) JO4 was 0.05 µg/mL.

And the VIA IC50 [6]?
Its VIA IC50 is 0.065 µg/mL.

What about the DSG2 shedding from HT29 cells relative to PBS treated monolayers (ELISA of the medium) [7] of the same molecule?
The DSG2 shedding from HT29 cells relative to PBS treated monolayers (ELISA of the medium) was 1.44 fold.

What about the VIA IC50 [7] of the same molecule?
The VIA IC50 was 0.067 µg/mL.

B1: GB3 (designed binder)
chain: MRGSHHHHHHGSKVSALKEKVSALKEKVSALKEKVSALKEKVSALKEGSGGGSGGGSGGGSNSIALKNNTLWTGPKPEANSIIEYGKQNPDSKLTLILVKNGGIVNGYVTLMGASDYVNTLFKNKNVSINVELYFDATGHILPDSSSLKTDLELKYKQTADFSARGFMPSTTAYPFDLPNAGTHNENYIFGQSYYKASDGALFPLEVTVMLNKRLPDSRTSYVMTFLWSLNAGLAPETTQATLITSPFTFSYIREDDGGGSGGGSGGGSC
B1 was tested. Which “DSG2 shedding from HT29 cells relative to PBS treated monolayers (ELISA of the medium)” value [8] did it give?
Its value is 1.52 fold.

And the “VIA, DTT-reduced against oxidized protein: reduction in viral inhibition” value [8]?
The value was ~2 fold.

What about the Kd (recombinant human DSG2 [9]) of the same molecule?
Its Kd is 0.11 nM.

What about the koff (recombinant human DSG2 [9]) of the same molecule?
Its koff is 0.0005 s⁻¹.

And the “IC50 (read off the curve); VIA, oxidized (non-reduced) GB3” value [10]?
Its value is ~0.03 µg/mL.

What about the “IC50 (read off the curve); VIA, reduced (DTT) GB3” value [10] of the same molecule?
Its value is ~0.06 µg/mL.

What about the “VIA IC50” value [11] of the same molecule?
The value was 0.028 µg/mL.

What about the “VIA IC50” value [12] of the same molecule?
The value was 0.029 µg/mL.

What about the Kd (recombinant human DSG2 [13]) of the same molecule?
The Kd was 0.11 nM.

B2: GB5 (designed binder)
chain: MRGSHHHHHHGSKNSIALKNNTLWTGPKPEANSIIEYGKQNPDSKLTLILVKNGGIVNGYVTLMGASDYVNTLFKNKNVSINVELYFDATGHILPDSSSLKTDLELKYKQTADFSARGFMPSTTAYPFVLPNAGTHNENYIFGQSYYKASDGALFPLEVTVMLNKRLPDSRTSYVMTFLWSLNAGLAPETTQATLITSPFTFSYIREDD
Which results are given for B2?
lower viral inhibition relative to JO-1 (VIA) [8]: 5 fold; VIA IC50 [12]: 0.241 µg/mL

B3: GB10 (designed binder)
chain: MRGSHHHHHHCGSKVSALKEKVSALKEKVSALKEKVSALKEKVSALKEGSGGGSGGGSGGGSNSIALKNNTLWTGPKPEANSIIEYGKQNPDSKLTLILVKNGGIVNGYVTLMGASDYVNTLFKNKNVSINVELYFDATGHILPDSSSLKTDLELKYKQTADFSARGFMPSTTAYPFVLPNAGTHNENYIFGQSYYKASDGALFPLEVTVMLNKRLPDSRTSYVMTFLWSLNAGLAPETTQATLITSPFTFSYIREDD
How did the “VIA IC50” value [12] turn out when B3 was run?
The value was 0.026 µg/mL.

B4: GB7/JOC-x (designed binder)
chain: RGSHHHHHHGSKNSIALKNNTLWTGPKPEANSIIEYGKQNPDSKLTLILVKNGGIVNGYVTLMGASDYVNTLFKNKNVSINVELYFDATGHILPDSSSLKTDLELKYKQTADFSARGFMPSTTAYPFDLPNAGTHNENYIFGQSYYKASDGALFPLEVTVMLNKRLPDSRTSYVMTFLWSLNAGLAPETTQATLITSPFTFSYIREDDGGGSGGGSGGGSC
notes: also called GB7 (ΔDD)
Which “IC50 (read off the curve); VIA, oxidized (non-reduced) GB7 (JOC-x)” value [14] does the source give for B4 here?
The value was ~0.02 µg/mL.

And the “IC50 (read off the curve); VIA, reduced (DTT) GB7 (JOC-x)” value [14]?
The value was ~0.2 µg/mL.

What about the “DSG2 shedding from HT29 cells relative to PBS treated monolayers (ELISA of the medium)” value [8] of the same molecule?
Its value is 1.39 fold.

What about the “VIA IC50” value [8] of the same molecule?
Its value is 0.032 µg/mL and 0.055 µg/mL.

And the “VIA, DTT-reduced against oxidized protein: decrease in viral inhibition” value [8]?
Its value is 5 fold.

And the “loss of viral inhibition of unconjugated JOC-x in the presence of poly(I:C) (VIA)” value [8]?
The value was ~3.9 fold.

What about the Kd (recombinant human DSG2 [9]) of the same molecule?
The Kd was 0.58 nM.

What about the koff (recombinant human DSG2 [9]) of the same molecule?
Its koff is 0.00083 s⁻¹.

What about the “IC50 (read off the curve); VIA, unconjugated mixture JOC-x + poly(I:C)” value [15] of the same molecule?
The value was ~0.2 µg/mL.

And the “fold reduction in affinity, GB7 immobilized against DSG2 immobilized” value (recombinant human DSG2 [16])?
Its value is 2 fold.

And the “VIA IC50” value [11]?
Its value is 0.029 µg/mL.

And the Kd (recombinant human DSG2 [17])?
The Kd was 1.19 nM.

And the koff (recombinant human DSG2 [17])?
Its koff is 0.00075 s⁻¹.

And the kon (recombinant human DSG2 [17])?
The kon was 630000 M⁻¹ s⁻¹.

What about the “VIA IC50” value [12] of the same molecule?
Its value is 0.032 µg/mL.

And the Kd (recombinant human DSG2 [13])?
Its Kd is 1.2 nM.

B5: JOC-DOTA (designed binder)
chain: RGSHHHHHHGSKNSIALKNNTLWTGPKPEANSIIEYGKQNPDSKLTLILVKNGGIVNGYVTLMGASDYVNTLFKNKNVSINVELYFDATGHILPDSSSLKTDLELKYKQTADFSARGFMPSTTAYPFDLPNAGTHNENYIFGQSYYKASDGALFPLEVTVMLNKRLPDSRTSYVMTFLWSLNAGLAPETTQATLITSPFTFSYIREDDGGGSGGGSGGGSC
modifications: maleimido-mono-amide-DOTA conjugated to reduced JOC-x (free cysteine)
For B5, which “VIA IC50” value [8] is on record?
The value was 0.131 µg/mL.

B6: JOC-poly(I:C) conjugate (designed binder)
chain: RGSHHHHHHGSKNSIALKNNTLWTGPKPEANSIIEYGKQNPDSKLTLILVKNGGIVNGYVTLMGASDYVNTLFKNKNVSINVELYFDATGHILPDSSSLKTDLELKYKQTADFSARGFMPSTTAYPFDLPNAGTHNENYIFGQSYYKASDGALFPLEVTVMLNKRLPDSRTSYVMTFLWSLNAGLAPETTQATLITSPFTFSYIREDDGGGSGGGSGGGSC
modifications: poly(I:C) linked through the crosslinker SMPB to the free cysteine on JOC-x
Which “IC50 of the conjugate relative to the unconjugated protein (VIA)” value [8] does the source give for B6 here?
Its value is ~6.3 fold.

What about the “VIA IC50” value [8] of the same molecule?
The value was 0.203 µg/mL.

B7: JOC-DOTA (Eu) (designed binder)
chain: RGSHHHHHHGSKNSIALKNNTLWTGPKPEANSIIEYGKQNPDSKLTLILVKNGGIVNGYVTLMGASDYVNTLFKNKNVSINVELYFDATGHILPDSSSLKTDLELKYKQTADFSARGFMPSTTAYPFDLPNAGTHNENYIFGQSYYKASDGALFPLEVTVMLNKRLPDSRTSYVMTFLWSLNAGLAPETTQATLITSPFTFSYIREDDGGGSGGGSGGGSC
modifications: maleimido-mono-amide-DOTA conjugated to reduced JOC-x (free cysteine), complexed with europium ions
For B7, which “VIA IC50” value [8] is on record?
Its value is 0.254 µg/mL.
